Source: the supplement of paper PMC12764529
± gives the half width of the 95% confidence interval.

Test: folding stability dG unfold (combined trypsin and chymotrypsin); higher = more stable
Method in brief: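 How resistant each design was to proteolysis was captured as K50, inferred by Bayesian fitting of sequencing counts. Unfolding free energy was then derived relative to a sequence-predicted unfolded-state K50 and a shared folded-state K50, per protease or combined. Digestion used trypsin and chymotrypsin at 11 threefold-diluted concentrations plus a no-protease condition, on mini-proteins under 80 residues without cysteine in a PA-tagged cDNA display construct. Designs were kept only when AlphaFold2 dimer inter-PAE was above 15.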

Sequence | folding stability dG unfold [kcal/mol]
SAGAGTVASPEEAEELVEELRAALPPEATITRDPTPEGGVRFTVRLPGEGRVLEMEFDPARDTTARRPESAG [r5_358_JUSTAS] | < -1
SAGGMVEIDPNPRVITVTDPSSSKVTKLNLPFPPDEVEKVTVLPDGTIAVYVPATGETIEVPLSELGSAGGS [r16_410_JUSTAS] | -0.774 ± 0.33
SAGGSAGGSAMILVPKEKLEEAAKKLNLNIVEVKPVPPGIEVAEVKVEGSEEQKKAFLEALLSAGGSAGGSA [r18_175_JUSTAS] | 0.0149 ± 0.2
SAGGMTIVKPSDGTPQFIEDEEAEKLVKELEEKGLLKKEKPGDITIPLPTVDPVTGKPRTTTITILPESSAG [r5_243_JUSTAS] | < -1
SAGGSAGGSAESIDAKVTPVALPSGPRYLIEVNNPAAPEIPKSVVEEELAKKYPKERVELLSAGGSAGGSAG [r3_226_JUSTAS] | < -1
SAGKITIEYDKETNTVTVTIEIEIEVINEDGSIEKKKITITVKVKVDKKTNKVELLSLDEILKKLEELLSAG [r5_239_TrROS_Hall] | 3.81 ± 0.36
SAGGSAGGMSISTEQEGGKITVTDSSPGTPIAELPPDVEKEVETPVIPPPPPLYRLFLPGTVLVSAGGSAGG [r6_40_JUSTAS] | < -1
SAGGSMTLTFRKPDTDVTSEKVTKPPGGPELVDLRITPPDGSGEKRTLTPEELAKEFGLSLEEILESAGGSA [r2_262_JUSTAS] | < -1
SAGGSAGGSAGEPIRVRIENPPGGQRKITIPTDDLQEKGITPKDIAKKLAREFGWPIEVWSAGGSAGGSAGG [r11_829_TrROS] | < -1
SAGGSAGGSAGGFVEKYPDGVIVEKDPNNDSGTVKKVTTTKDPNTNKPTSKVTVTPISKLSAGGSAGGSAGG [r7_181_JUSTAS] | < -1
SAGGSAGGSAPPPLPPDAVVTIPNPGSLEEVKKLAEKLREEHGIKKIKITVEPNSVTLTVASAGGSAGGSAG [r3_73_JUSTAS] | < -1
SAGGSAGGSAMLTKTIKLPNGKPASVTITTLSEGSSPGSSVDPKLVINADPNIPKEIVDKLLSAGGSAGGSA [r18_272_JUSTAS] | -0.685 ± 0.13
SAGGSAGGSGMVSSVVKHTVELNVPENRPNAEELAAELRAAHPGVTVVEITETPNKAVITVEESAGGSAGGS [r12_454_JUSTAS] | < -1
SGSPSTPVTITVEFPPRLTTVLYREPTRPPLGYLLVPEPSRTETITVPVSEVAAVKAELEPRGMTVTVTASA [r9_167_JUSTAS] | < -1
VEFEEIETTFTLAAPGGSLVDVDLKTTKKDPKNGKVYIEGTLTTVDPGGVPRTLPTKRVVSPEELKQLVSES [r1_371_JUSTAS] | -0.318 ± 0.49
SAGGSAGGSAGSVEEIESPDGTKTLVTKEPDSIKTTVTKPGGIPTLVTIDSKTGKWSVSLSAGGSAGGSAGG [r11_590_JUSTAS] | -0.714 ± 0.63
SAGGSAGGSPDNITFKVPDGPVRIENGNNEQEFPPGKTQTIPPKNPNNMRIEAFPPNIIKITPSAGGSAGGS [r20_150_TrROS] | < -1
SNPWQIKFRNPNRPVEIPIQMNPDDGYVGISVRMRKPGKPKTHTITYKVKNIEDLLDHLEDLPPGFEIEPSA [r9_713_TrROS] | -0.0771 ± 0.45
SAGGSAGGSAGGDPVTVLSIKPEPGKLTVTTNTRADGSTTTTTVSPENPPNIKPGEPLSSAGGSAGGSAGGS [r10_834_JUSTAS] | 0.109 ± 0.18
SAGGMVTVERGPENRVITITLPPSVPEKVDELAAKLGTDYVTTEPLPEGDLVRYTIYVPGDNPALLESAGGS [r16_479_JUSTAS] | -0.948 ± 0.41
SAGGPKLYIMIPPELRDNFPDIEIRPVEIPDDNIEIEIKFPGKKVTFPIYIFDPDGKIVEPQTITIEPSAGG [r13_129_TrROS] | 0.226 ± 0.27
SAGGSAGGSAGGSKKIIIPVGNKPIEITLHPDEIPEIHPETNYISIYLPKTNDVLILPVGSAGGSAGGSAGG [r7_7_TrMRF] | < -1
SAGGSAGGSADIELLGESVDPATGRSSKTFQAPGKIIVETTAPDGTKTTSVVDPNSNVTIPLSAGGSAGGSA [r18_230_JUSTAS] | < -1
SAGGSAGGSAGKEIHIPFPDGDTPEQAKKFAKEIADMLAQKNGKPIKVDKIEIIPPEQWPSAGGSAGGSAGG [r17_68_TrROS] | -0.804 ± 0.34

Sequence | folding stability dG unfold [kcal/mol]
SAGGSPTIDITPEVFEELKKKGVTPDKESFNITASLPDGTVYEGTITLPPSNPNIPFEYKPVDKPLESAGGS [r16_497_JUSTAS] | -0.515 ± 0.21
SAGGSGMRKFSPEEAKKKEVVITIPVVTYSPSLKFSPVTVPVTVSGPVTSDEEAKEKVEKAVKELASAGGSA [r2_244_JUSTAS] | < -1
SAGGSAGGSAGVELPPSLSAEVTPVPGKPGLSRVTITLPDGVVRTIDLERKGDKWIVNPRSAGGSAGGSAGG [r11_177_JUSTAS] | < -1
SAGGSAGGSAGGPVVNILVKHPNGKKETISVDVKEENIGEVATDILPKGYEVLEPSVFPGSAGGSAGGSAGG [r7_159_TrMRF] | < -1
SAGGSLPVVDGPSDLVETTVYEDGTIEIKVERAEPPGVPTVRTLTITLEPPVGPPKVPPGNPKYLGSAGGSA [r2_368_JUSTAS] | < -1
SAGGSAGGSAGSMPIVLRAEFPSNDETVEIPVTSPEEAERVAQELAAQPDWPLEKVDFGGSAGGSAGGSAGG [r11_951_JUSTAS] | < -1
SMKALVLELPEEKVVVVFETDELKVVPIPVKDKEEAKEKIEELVKELEEETGKKPEVVVVEVDEDEELPVSA [r9_786_TrMRF] | < -1
SAGGSAGGSAGGDAILIEVESPEDAVEAARELAEKEFGIDPENFPINVVVDEPDGKALIASAGGSAGGSAGG [r7_387_TrMRF] | -0.404 ± 0.25
SAGGSAGGSASSPSSPVKVTVTVTAPDSLVKTITVTKTPEGVIDLVLPSDIPSDYKITIIESAGGSAGGSAG [r3_44_JUSTAS] | -0.699 ± 0.51
SAGGSAGGMTAEEVAEWIADEFMENHPNIEIKPVATEDGEVKIDIRHPNSGMTHTFKIPPGQPLSAGGSAGG [r6_446_TrROS] | < -1
SAGGPSAENLVEGDKVLLLIPLGDGPERRLELPLPDGRPVVVEVEPDRPGLITVTIPETGKPIVLPLSAGGS [r16_198_TrMRF] | < -1
SAGGSASYSSLKITIIDTGTTTTVPPGATTTPTVVKLPDNKTAIITTTTPPDGTTATTVELFDNDKSAGGSA [r15_559_JUSTAS] | < -1
SAGGSAGGSAMTPDELKDNFPNMPVEPRPLNNSTQWKIEMPGGMRIEIQYDPGKPKIDIEEGSAGGSAGGSA [r18_13_TrROS] | -0.622 ± 0.23
SAGGSAGGSMVLIEIYFKGPEKPIVFPAEGPEEVVEKLLELVEENPELGLDNIAEIRAYPGEESAGGSAGGS [r12_852_TrMRF] | 0.0303 ± 0.28
SAGGSAGGMVEHVVTVPPSQVEEVIEEAKPKPVVEVKVEKVPGRDEVVVTMKYEIPEEELLKKLSAGGSAGG [r6_273_JUSTAS] | < -1
SAGGSAGGSAGGKITIVVSASSPEEAKRFVGELKALGPADIKVIVVPAPKPLPADDPRAKSAGGSAGGSAGG [r7_261_TrMRF] | < -1
SAGGSAGGSMVTTSIDPSGTAKITVTDGGGVPVSTATIPVDPNAILTYDPNNSSISTFSPVSSSAGGSAGGS [r12_1002_JUSTAS] | -0.442 ± 0.24
SAGGGMVERTETVTVPLSDVLAGRPPTPEAIAAARFPDTAEVTLETTEVPEDDTVTVTLTVRVPPELLSAGG [r13_862_JUSTAS] | -0.0656 ± 0.21
SAGGSAGGSAGGITPEEIEKIREAPLPNGAPIKDVFVEGDYAVVLFETEPDLYLIVIPNKSAGGSAGGSAGG [r7_995_TrMRF] | -0.907 ± 0.57
SAGGSAGGSAGGMYIATFKPPDGSEITVKLNPGEKVTIKLKDGTPAGVVSKKAVSPELLSAGGSAGGSAGGS [r10_422_JUSTAS] | -0.361 ± 0.68
SAGGSVRIESIKWKRPPNGMFKIEIHVEAPPGDPDDPEKQERQAESVAKPIAKELQDEFGFKPIGPSAGGSA [r2_306_TrROS] | < -1
SAGGGAEEEAKKIAEELEKIGGVKKVEVEVKPKPDDSVEVKVKVEFEPPKPPKPPVVELPENGELVFKSAGG [r13_957_TrMRF] | < -1
SAGGSRQVIEWEFKDPKNGKPFEISIEYDEENGVPMVEIRDRNGEPNAVVPVPPDNADEALEKFGISAGGSA [r2_115_TrROS] | < -1
